Patent US12357965B2, “Supramolecular filamentous assemblies for protein purification” (The Johns Hopkins University, priority 2017, dated 2025)
Several values for one entry are separate records, joined by “and”; a condition that tells them apart may be missing. Identical values can stand only once. Where no end group is shown, it is not given here. The star is where a group is joined. Palmitoyl = CCCCCCCCCCCCCCCC(=O)*; Octanoyl = CCCCCCCC(=O)*; C12H21O = C12 acyl

Key:
[1] = TEM imaging of self-assembled nanostructures (diameter); format: physicochemical; settings: water; for diameter of nanofibers / nanobelts (TEM): pH 7.4, aged overnight; for diameter of smallest filaments (TEM): pH 7.4, double-chain alkylated IAs
Protocol: Self-Assembly of Immuno-Amphiphiles and TEM Imaging Immuno-amphiphiles with 1 mM concentration were pretreated with HFIP and then dissolved in 1×PBS or deionized water and aged overnight at room temperature; 10 μL of 10 fold diluted sample was spotted on a carbon film copper grid with 400 square mesh (from EMS: Electron Microscopy Sciences) and the excess was removed with filter paper to leave a thin film of sample on the grid. After letting the sample dry for 5 minutes, 10 μL of 2% uranyl acetate was added to sample grid, and the excess was removed after 30 seconds. All samples were dried for at least 3 hours before TEM imaging.

[2] = Circular dichroism (CD) spectroscopy of peptide secondary structure; format: physicochemical; settings: 100 μM in water at pH 7.4
[3] = Critical micelle concentration (CMC) measurement with Nile Red; format: physicochemical; settings: deionized water
Protocol: CMC Measurement. […] The stock solution of Nile Red was initially prepared by dissolving the dye in acetone at 50 μM. 10 μL stock solution was loaded into several centrifuge tubes, where the solvent evaporates under room temperature to yield the dry mass of Nile Red. Various concentrations of the peptide solutions were prepared in deionized water, and then identical volume was added into the centrifuge tubes containing dry Nile Red and aged overnight. Fluorescent spectra of Nile Red were then monitored by a Fluorolog fluorometer (Jobin Yvon, Edison, NJ) with fixed excitation wavelength at 560 nm; emission spectra were monitored 580-720 nm. The CMC of IAs is determined by a blue-shift of the emission maximum, whereas this transition occurs as the incubated peptides exceed their CMC values.
To deeply understand the differences between single-chain and double-chain alkylated IAs with fragmented antibody binding peptides, further studies on CMC and secondary structures were conducted. The critical micelle concentration (CMC) values for various IAs were measured using Nile Red, a lipophilic dye that fluoresces depending on solvent polarity. Intensive fluorescence upon exposure to hydrophobic environments can be strongly quenched and red-shifted in aqueous media. When incubated with IAs at different concentrations in aqueous solution, Nile Red prefers to partition into the hydrophobic core offered by the self-assembled nanostructures and the CMC of IAs was determined when a blue-shift of the emission maximum occurred. […] Similarly, CMC values for C16-Helix2, Helix1-2C8, and 2C8-Helix2 can be obtained from FIG. 8B-8D.

IgG = IgG (Homo sapiens, UniProt P01857); assay: IgG binding and precipitation by co-assembled immunofibers with 1 M ammonium sulfate (ProA column quantification); settings: mixed with IgG, 10:1 binding molecule to IgG
Protocol: To investigate the IgG binding and precipitation ability with the new immunofibers binding system, 100 μl of desired immunofibers solution was incubated with IgG (with a 10:1 molar ratio of C12-VVKKGG(SEQ ID NO: 9) -Z33 and IgG) for half an hour followed by adding ammonium sulfate to a final concentration of 1 M to trigger the precipitation of the immunofibers and IgG. […] After centrifuging down the precipitates and analyzing the IgG concentration in the supernatant, about 30% IgG were precipitated out from the solution. IgG concentration was quantified with a ProA column (TSKgel® Protein A-5PW, 20 μm, 35×4.6 mm) monitored at 280 nm.
To increase the IgG binding efficiency and optimal precipitation condition in the co-assembled immunofibers binding system, several factors will continue to be optimized including the ratio of binding molecules to spacer molecules, the ratio of binding molecules to IgG, salt concentration, binding and salting time, and so on. The molar ratio of C12-VVEE (SEQ ID NO: 10) and C12-VVKKGG(SEQ ID NO: 9) -Z33 and the molar ratio of C12-VVKKGG(SEQ ID NO: 9) -Z33 were firstly studied and preliminary results were shown in FIG. 21. At a 10:2 molar ratio of C12VVKKGG(SEQ ID NO: 9) -Z33 to IgG and 1 M ammonium sulfate, 5 molar ratios of C12-VVEE (SEQ ID NO: 10) to C12-VVKKGG(SEQ ID NO: 9) -Z33 (5:1, 10:1, 25:1, 50:1, 100:1) were tested. […]

[4] = Thioflavin T (ThT) spectroscopic assay for β-sheet; format: physicochemical; settings: 100 μM in deionized water
Protocol: Thioflavin T (ThT) Spectroscopic Assay. A ThT stock solution was prepared in deionized water at 50 μM. […] The fluorescence intensity was then measured by a Fluorolog fluorometer (Jobin Yvon, Edison, NJ) with excitation at 440 nm (slit width 5 nm) and emission at 482 nm (slit width 10 nm).
To further confirm the component of secondary structures in the self-assembled IAs, a fluorescent dye Thioflavin-T (ThT) with large enhancement of its fluorescence emission upon binding to β-sheet surfaces was used to examine the existence of β-sheet secondary structures in Helix1-based IAs.

IgG, sequence (P01857 1-330 isoform P01857-1): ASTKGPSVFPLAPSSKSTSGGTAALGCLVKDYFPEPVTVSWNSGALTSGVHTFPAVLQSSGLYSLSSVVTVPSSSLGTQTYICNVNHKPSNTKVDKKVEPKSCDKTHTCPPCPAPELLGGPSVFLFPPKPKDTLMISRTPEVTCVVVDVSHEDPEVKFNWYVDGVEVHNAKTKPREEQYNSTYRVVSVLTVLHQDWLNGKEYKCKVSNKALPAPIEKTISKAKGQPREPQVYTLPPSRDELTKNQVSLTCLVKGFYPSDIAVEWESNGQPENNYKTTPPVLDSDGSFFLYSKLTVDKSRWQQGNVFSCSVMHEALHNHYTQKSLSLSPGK

Substance	diameter of nanofibers / nanobelts (TEM) [1]	diameter of smallest filaments (TEM) [1] [nm]	Main Secondary Structure (100 μM) [2]	CMC [3] [µM]	precipitation after addition of ammonium sulfate (observation) (IgG)	ThT fluorescence emission at 482 nm compared with pure ThT solution [4]
(C8H15O)2-KPNLNEEQRNAKIKSIRDD (SEQ ID NO: 7) (not fully specified (residue 1, N-terminus); printed as (C8H15O)2-KPNLNEEQRNAKIKSIRDD; also: two octanoyl chains (C8H15O)2 at N-terminal Lys, places not given here) [2C8-Helix2]	22.9±1.5 nm	9.3±1.3	α-helix	5 to 10		
C8H15O- PNLNEEQRNAKIKSIRDD (SEQ ID NO: 5) (Octanoyl-PNLNEEQRNAKIKSIRDD) [C8-Helix2]			Random coil	>100		
C12-VVKKGG (SEQ ID NO: 9) -Z33: binding molecule: C12 alkyl tail at N-terminus, VVKKGG spacer between the carbon chain and binding peptide Z33					no precipitation was observed	
C12H21O- PNLNEEQRNAKIKSIRDD (SEQ ID NO: 5) (C12H21O-PNLNEEQRNAKIKSIRDD) [C12-Helix2]			α-helix	2 to 5		
C16H31O- PNLNEEQRNAKIKSIRDD (SEQ ID NO: 5) (Palmitoyl-PNLNEEQRNAKIKSIRDD) [C16-Helix2]	12.4±1.7 nm		β-sheet	0.5 to 1		
FNMQQQRRFYEALHD [Helix1]			random coil			
FNMQQQRRFYEALHDK (SEQ ID NO: 3)-C8H15O (not fully specified (residue 16); also: C-terminal C8 acyl (C8H15O), attachment not given here) [Helix1-C8]			Random coil	>100		
FNMQQQRRFYEALHDK(SEQ ID NO: 3)-C12H21O (FNMQQQRRFYEALHDK(C12H21O); not fully specified) [Helix1-C12]	12.2±1.4 nm and 12.9±0.9 nm		β-sheet	5 to 10		
FNMQQQRRFYEALHDK(SEQ ID NO: 3)-C16H31O (not fully specified (residue 16); also: C-terminal C16 acyl (C16H31O), attachment not given here) [Helix1-C16]	9.6±1.3 nm and 9.5±1.2 nm		β-sheet	0.5 to 1		dramatic increase of fluorescence
FNMQQQRRFYEALHDKK(SEQ ID NO: 4)-(C8H15O)2 (not fully specified (residues 16, 17); also: two C-terminal octanoyl chains (C8H15O)2, places not given here) [Helix1-2C8]	10-70 nm	11.0±1.4	α-helix	10 to 20		
PNLNEEQRNAKIKSIRDD [Helix2]			random coil			
